According to paper PMC2783425 (Biochemistry, 2009):
Values belong to the molecule of their own block, whether it stands above or below them.

Columns and labels:
SufA (E. coli) = SufA (E. coli) (UniProt P77667); assay: SPR
(His)6-SufS = target: T1, (His)6-SufS (E. coli, UniProt P77444 1-406); assay: SPR
T1 sequence (looked up): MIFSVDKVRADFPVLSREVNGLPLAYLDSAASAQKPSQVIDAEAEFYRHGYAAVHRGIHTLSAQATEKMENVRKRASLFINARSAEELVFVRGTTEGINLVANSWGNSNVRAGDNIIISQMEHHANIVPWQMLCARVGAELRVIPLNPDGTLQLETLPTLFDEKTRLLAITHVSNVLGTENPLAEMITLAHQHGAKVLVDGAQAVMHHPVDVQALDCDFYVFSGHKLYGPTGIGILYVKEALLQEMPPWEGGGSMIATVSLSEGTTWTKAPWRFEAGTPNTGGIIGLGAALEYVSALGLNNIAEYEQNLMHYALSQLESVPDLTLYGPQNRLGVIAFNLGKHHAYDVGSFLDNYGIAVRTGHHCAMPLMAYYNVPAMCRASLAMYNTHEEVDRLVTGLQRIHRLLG

SufB = target: T2, SufB (E. coli, UniProt P77522 1-495); assay: cross-linking
T2 sequence (looked up): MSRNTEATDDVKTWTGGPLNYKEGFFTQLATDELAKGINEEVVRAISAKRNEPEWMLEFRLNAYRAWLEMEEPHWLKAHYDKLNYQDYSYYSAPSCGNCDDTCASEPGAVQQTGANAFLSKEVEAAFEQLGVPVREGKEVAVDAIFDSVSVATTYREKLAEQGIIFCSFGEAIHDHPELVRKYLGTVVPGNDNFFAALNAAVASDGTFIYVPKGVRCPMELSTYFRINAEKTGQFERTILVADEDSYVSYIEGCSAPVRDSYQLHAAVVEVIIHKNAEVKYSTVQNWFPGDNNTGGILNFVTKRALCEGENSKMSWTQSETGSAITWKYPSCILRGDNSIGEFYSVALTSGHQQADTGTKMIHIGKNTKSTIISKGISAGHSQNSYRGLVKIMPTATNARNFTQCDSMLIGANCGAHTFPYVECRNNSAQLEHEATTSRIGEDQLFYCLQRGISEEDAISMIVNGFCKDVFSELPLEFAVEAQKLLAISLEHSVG

SufC = target: T3, SufC (E. coli, UniProt P77499 1-248); assay: cross-linking
T3 sequence (looked up): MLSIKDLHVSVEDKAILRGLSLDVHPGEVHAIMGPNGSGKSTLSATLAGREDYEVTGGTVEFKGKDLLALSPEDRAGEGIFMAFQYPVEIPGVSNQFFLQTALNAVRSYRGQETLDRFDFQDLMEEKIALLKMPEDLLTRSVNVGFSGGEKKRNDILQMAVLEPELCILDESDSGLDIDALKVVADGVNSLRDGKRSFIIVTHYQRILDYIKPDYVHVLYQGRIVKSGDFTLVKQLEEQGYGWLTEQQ

SEC = target: the molecule itself; assay: SEC

Kd (SufA (E. coli)): 1400 nM
Molecule: (His)6-SufS (from UniProt P77444 1-406) (enzyme)

binding result (SufB): binds
binding result (SufC): binds
B2: SufA pre-labeled with Mts-Atf-Biotin (natural protein, E. coli, UniProt P77667 1-122, looked up)
chain: MDMHSGTFNPQDFAWQGLTLTPAAAIHIRELVAKQPGMVGVRLGVKQTGCAGFGYVLDSVSEPDKDDLLFEHDGAKLFVPLQAMPFIDGTEVDFVREGLNQIFKFHNPKAQNECGCGESFGV
modifications: Mts-Atf-biotin on cysteine residues (reducible disulfide bonds)

The next lines start with the molecule.

B1: SufE (natural protein, E. coli, UniProt P76194 1-138, looked up)
chain: MALLPDKEKLLRNFLRCANWEEKYLYIIELGQRLPELRDEDRSPQNSIQGCQSQVWIVMRQNAQGIIELQGDSDAAIVKGLIAVVFILYDQMTPQDIVNFDVRPWFEKMALTQHLTPSRSQGLEAMIRAIRAKAAALS
Kd ((His)6-SufS): 1.1 nM

B3: SufA (natural protein, E. coli, UniProt P77667 1-122, looked up)
chain: B2 chain
stoichiometry N (SEC): 2
